Data reported in article PMC6175878, “ROS-induced R loops trigger a transcription-coupled but BRCA1/2-independent homologous recombination pathway through CSB” (Nature Communications, 2018).
Blank lines part the entries; values can stand above or below the molecule they belong to.

Columns and labels:
6H-Flag-CSB (human) = 6H-Flag-CSB (human) (UniProt Q03468); test: SEC; Superdex 200 in Buffer B (25 mM Tris-Cl pH 7.5, 10% glycerol, 0.5 mM EDTA, 500 mM KCl, 0.01% IGEPAL, 1 mM DTT), 4 °C; last step of the purification
GST-CSB-CTD = GST-CSB-CTD (human, UniProt Q03468 1200-1493); test: EMSA; 1 mM Mg2+; EMSA: 25 mM Tris-HCl pH 7.5, 1 mM MgCl2, 1 mM DTT, 50 ug/mL BSA, 50 mM NaCl, 15 min 37 C, 6% PAGE-TBE at 4 C; pull-down: 20 mM Tris-HCl pH 7.5, 50 mM NaCl, 2 mM MgCl2, 0.1% Tween-20, 30% glycerol, RNase 0.2 U/uL (so in the source); conditions: protein: recombinant; tags: GST (N-term, pGEX-4T); label: 5' maleimide-IR800 on oligo 1 (RNA); blunt
Chain of GST-CSB-CTD (Q03468 1200-1493): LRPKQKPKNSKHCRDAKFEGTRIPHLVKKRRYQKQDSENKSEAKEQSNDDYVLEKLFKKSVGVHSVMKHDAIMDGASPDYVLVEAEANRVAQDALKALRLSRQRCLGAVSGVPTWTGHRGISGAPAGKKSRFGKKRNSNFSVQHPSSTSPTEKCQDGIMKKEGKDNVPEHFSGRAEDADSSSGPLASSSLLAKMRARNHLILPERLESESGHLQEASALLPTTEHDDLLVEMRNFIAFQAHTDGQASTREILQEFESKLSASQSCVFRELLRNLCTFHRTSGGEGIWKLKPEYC

GST-CSB-AD = GST-CSB-AD (human, UniProt Q03468 337-509); test: as above; conditions: protein: recombinant; tags: GST (N-term, pGEX-4T-3); label: 5' maleimide-IR800 on oligo 1 (RNA); blunt
RAD52 = molecular target: T1, RAD52 (human, UniProt P43351 1-418); test: EMSA; 1 mM Mg2+; lower affinity than CSB-FL; EMSA: 25 mM Tris-HCl pH 7.5, 1 mM MgCl2, 1 mM DTT, 50 ug/mL BSA, 50 mM NaCl, 15 min 37 C, 6% PAGE-TBE at 4 C; pull-down: 20 mM Tris-HCl pH 7.5, 50 mM NaCl, 2 mM MgCl2, 0.1% Tween-20, 30% glycerol, RNase 0.2 U/uL (so in the source); conditions: protein: recombinant; tags: C-terminal 6xHis; label: 5' maleimide-IR800 on oligo 1 (RNA); blunt
T1 sequence: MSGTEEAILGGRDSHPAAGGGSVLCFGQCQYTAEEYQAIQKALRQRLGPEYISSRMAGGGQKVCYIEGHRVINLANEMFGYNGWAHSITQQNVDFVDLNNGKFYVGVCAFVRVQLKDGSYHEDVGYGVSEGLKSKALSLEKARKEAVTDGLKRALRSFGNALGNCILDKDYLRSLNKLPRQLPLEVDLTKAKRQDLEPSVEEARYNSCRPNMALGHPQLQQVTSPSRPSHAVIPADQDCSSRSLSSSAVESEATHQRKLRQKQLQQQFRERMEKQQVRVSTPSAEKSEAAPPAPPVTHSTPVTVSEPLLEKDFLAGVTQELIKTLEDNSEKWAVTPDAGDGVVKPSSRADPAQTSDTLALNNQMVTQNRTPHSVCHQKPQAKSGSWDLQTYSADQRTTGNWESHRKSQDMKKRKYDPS

[1] = molecular target: 6H-Flag-CSB full length (CSB-FL) (human, UniProt Q03468 1-1493); test: EMSA; 1 mM Mg2+; much higher affinity than RAD52; EMSA: 25 mM Tris-HCl pH 7.5, 1 mM MgCl2, 1 mM DTT, 50 ug/mL BSA, 50 mM NaCl, 15 min 37 C, 6% PAGE-TBE at 4 C; pull-down: 20 mM Tris-HCl pH 7.5, 50 mM NaCl, 2 mM MgCl2, 0.1% Tween-20, 30% glycerol, RNase 0.2 U/uL (so in the source); conditions: protein: recombinant; chain copies: 2; label: 5' maleimide-IR800 on oligo 1 (RNA); blunt
Chain of 6H-Flag-CSB full length (CSB-FL) (Q03468 whole entry): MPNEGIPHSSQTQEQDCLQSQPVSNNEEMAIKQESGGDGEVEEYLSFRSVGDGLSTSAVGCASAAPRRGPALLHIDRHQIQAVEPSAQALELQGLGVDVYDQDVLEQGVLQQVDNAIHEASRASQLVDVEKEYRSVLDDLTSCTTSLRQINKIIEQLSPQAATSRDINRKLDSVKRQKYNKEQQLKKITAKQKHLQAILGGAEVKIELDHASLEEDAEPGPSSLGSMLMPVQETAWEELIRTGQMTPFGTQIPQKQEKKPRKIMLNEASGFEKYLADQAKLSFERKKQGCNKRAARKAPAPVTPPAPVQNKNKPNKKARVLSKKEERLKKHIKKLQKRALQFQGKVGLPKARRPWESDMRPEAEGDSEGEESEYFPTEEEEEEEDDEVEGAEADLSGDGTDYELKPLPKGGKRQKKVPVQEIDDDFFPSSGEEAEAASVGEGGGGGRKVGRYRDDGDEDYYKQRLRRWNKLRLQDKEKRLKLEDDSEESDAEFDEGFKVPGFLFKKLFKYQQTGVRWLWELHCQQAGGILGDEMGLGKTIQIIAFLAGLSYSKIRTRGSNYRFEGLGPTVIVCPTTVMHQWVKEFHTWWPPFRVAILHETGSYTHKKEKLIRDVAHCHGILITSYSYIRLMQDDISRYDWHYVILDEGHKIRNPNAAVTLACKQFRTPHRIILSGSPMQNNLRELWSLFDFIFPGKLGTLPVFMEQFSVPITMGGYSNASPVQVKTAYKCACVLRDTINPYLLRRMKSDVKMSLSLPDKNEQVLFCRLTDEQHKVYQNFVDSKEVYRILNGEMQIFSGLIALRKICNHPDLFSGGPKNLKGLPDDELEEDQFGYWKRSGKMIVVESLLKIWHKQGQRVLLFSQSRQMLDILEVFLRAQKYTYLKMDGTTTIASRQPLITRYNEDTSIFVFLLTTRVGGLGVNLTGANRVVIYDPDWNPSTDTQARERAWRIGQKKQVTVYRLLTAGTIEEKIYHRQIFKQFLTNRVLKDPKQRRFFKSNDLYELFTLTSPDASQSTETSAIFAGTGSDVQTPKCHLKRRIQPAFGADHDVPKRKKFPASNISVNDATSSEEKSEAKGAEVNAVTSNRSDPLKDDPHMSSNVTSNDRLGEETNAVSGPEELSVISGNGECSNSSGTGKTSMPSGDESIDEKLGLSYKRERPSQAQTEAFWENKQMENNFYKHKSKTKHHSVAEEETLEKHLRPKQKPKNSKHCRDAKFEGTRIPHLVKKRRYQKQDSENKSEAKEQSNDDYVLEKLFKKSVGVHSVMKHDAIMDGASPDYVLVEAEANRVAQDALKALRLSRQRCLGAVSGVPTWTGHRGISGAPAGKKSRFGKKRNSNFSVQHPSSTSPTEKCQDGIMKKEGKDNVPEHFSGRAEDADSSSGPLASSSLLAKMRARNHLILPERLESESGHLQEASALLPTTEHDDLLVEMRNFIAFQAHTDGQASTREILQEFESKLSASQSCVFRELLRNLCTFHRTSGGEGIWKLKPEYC

[2] = molecular target: T2, hRAD52 with a C-terminal 6x-his tag (human, UniProt P43351 1-418); test: cross-linking; 1 mM DSS, 100 mM Hepes pH 7.5, 50 mM KCl, 25 °C, 1 h; cross-linked species (>250 kDa) cut from SDS-PAGE, trypsin, mass spectrometry (pLink); conditions: both partners purified
T2 construct: RAD52, human (hRAD52), from pET28b-RAD52; also called His-RAD52; RAD52 protein; source: E. coli Rosetta, purified (Affiblue, Ni-NTA); not shown: His6, C-terminal, kept
T2 sequence (looked up): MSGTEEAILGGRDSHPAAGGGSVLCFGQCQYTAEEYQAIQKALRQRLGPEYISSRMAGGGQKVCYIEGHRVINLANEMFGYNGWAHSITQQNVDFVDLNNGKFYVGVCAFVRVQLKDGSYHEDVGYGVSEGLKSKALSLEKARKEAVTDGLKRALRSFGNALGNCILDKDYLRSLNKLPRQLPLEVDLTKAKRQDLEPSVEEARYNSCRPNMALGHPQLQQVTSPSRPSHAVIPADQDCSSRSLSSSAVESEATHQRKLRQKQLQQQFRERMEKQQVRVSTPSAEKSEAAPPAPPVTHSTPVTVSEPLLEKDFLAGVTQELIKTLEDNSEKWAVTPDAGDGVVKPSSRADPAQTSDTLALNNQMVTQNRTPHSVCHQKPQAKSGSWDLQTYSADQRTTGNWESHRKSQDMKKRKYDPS

stoichiometry N (6H-Flag-CSB (human)): 2
Molecule: 6H-Flag-CSB (from UniProt Q03468 1-1493) (natural protein; other documents disagree on this pair)

B1: DNA:RNA hybrid oligo 1/oligo 2 (DNA:RNA)
RNA: UUAAUUGGUGUGACUAAUCGAAGUUGAUACAUCGACGUUAUGGUGAUGAU
DNA: ATCATCACCATAACGTCGATGTATCAACTTCGATTAGTCACACCAATTAA
binding result (GST-CSB-CTD): binds
binding result (GST-CSB-AD): no binding
binding result (RAD52): binds
binding result [1]: binds

binding result [2]: binds
B2: GST-CSB-AD (residues 337-509) (domain or fragment, human, UniProt Q03468 337-509, looked up)
chain: KRALQFQGKVGLPKARRPWESDMRPEAEGDSEGEESEYFPTEEEEEEEDDEVEGAEADLSGDGTDYELKPLPKGGKRQKKVPVQEIDDDFFPSSGEEAEAASVGEGGGGGRKVGRYRDDGDEDYYKQRLRRWNKLRLQDKEKRLKLEDDSEESDAEFDEGFKVPGFLFKKLFK
notes: Cockayne Syndrome Protein B (CSB), human, acidic domain residues 337-509; Inserted into pGEX-4T-3 with XhoI and NotI; also called GST-tagged human CSB-AD; purified CSB-AD; source: E. coli Rosetta 2, purified (glutathione sepharose 4B)
